Test results reported in patent US6521594 (LA JOLLA CANCER RESEARCH FOUNDATION, dated 2003).
Starred links: 1 amine or outer side, 2 acyl side, 3 side chain; linkers in the order of their positions; H or OH if unused. Positions of bridges follow the written chain, without caps; N, C: chain ends. Non-standard residues stand in square brackets, D forms with d. Primed or numbered codes have the meaning given here. No end group written: not given here. *: point of attachment. Tyr(OMe)″ = O-methyl-tyrosine (Y-OMe, TyrOMe, O-Me-Tyr), COc1ccc(C[C@H](N[*:1])C(=O)[*:2])cc1; Tyr(Me)(4) = O-methyl-tyrosine (O-Me-Tyr, TyrMe), COc1ccc(C[C@H](N[*:1])C(=O)[*:2])cc1; Tyr(OMe) = O-methyl-tyrosine (O-Me-Tyr, Y-OMe), COc1ccc(C[C@H](N[*:1])C(=O)[*:2])cc1; Tyr(Me) = O-methyl-tyrosine (Y-OMe, O-Me-Tyr), COc1ccc(C[C@H](N[*:1])C(=O)[*:2])cc1; Tyr(Me)(3) = O-methyl-tyrosine (O-Me-Tyr), COc1ccc(C[C@H](N[*:1])C(=O)[*:2])cc1; Tyr(nHex) = O-n-hexyl-tyrosine, CCCCCCOc1ccc(C[C@H](N[*:1])C(=O)[*:2])cc1; Tyr(OMe)(3) = O-methyl-tyrosine, COc1ccc(C[C@H](N[*:1])C(=O)[*:2])cc1; Cys(β,β-pentamethylene) = O=C([C@@H](N[*:1])C1(S[*:3])CCCCC1)[*:2]; O‑Me‑Tyr = O-methyl-tyrosine, COc1ccc(C[C@H](N[*:1])C(=O)[*:2])cc1; Phe(4-NO2) = N[C@@H](Cc1ccc([N+](=O)[O-])cc1)C(=O)O; Tyr(3,5-I2) = N[C@@H](Cc1cc(I)c(O)c(I)c1)C(=O)O; Cyclohexylacetyl(1-SH) = O=C(CC1(S)CCCCC1)*; Phe(4-I) = N[C@@H](Cc1ccc(I)cc1)C(=O)O; 1Nal = N[C@@H](Cc1cccc2ccccc12)C(=O)O; Cha = N[C@@H](CC1CCCCC1)C(=O)O; dPen = CC(C)(S)[C@@H](N)C(=O)O; Pen = CC(C)(S)[C@H](N)C(=O)O; code O = not defined here; Orn = NCCC[C@H](N)C(=O)O

B1: Ac(Pmc)GHRGD(O-Me-Tyr)RC-NH2 (peptide)
peptide: Ac-[Cys(β,β-pentamethylene)]GHRGD[Tyr(OMe)]RC-NH2
modifications: disulfide 1-9
SMILES: COc1ccc(C[C@@H]2NC(=O)[C@H](CC(=O)O)NC(=O)CNC(=O)[C@H](CCCNC(=N)N)NC(=O)[C@H](Cc3c[nH]cn3)NC(=O)CNC(=O)[C@@H](NC(C)=O)C3(CCCCC3)SSC[C@@H](C(N)=O)NC(=O)[C@H](CCCNC(=N)N)NC2=O)cc1
B2: K(Pen)GRGDTPCA (peptide)
peptide: K[Pen]GRGDTPCA
modifications: disulfide 2-9
notes: 21 numbers stand for 20 rows, so none is assigned

These binders were tested against T1, Vitronectin receptor (human, UniProt P06756 31-1048; P05106 27-788) (assay: competition, ELISA or liposome assay, vitronectin coated).
T1 construct: mature; also called Vn-R; VnR
T1 sequence (P06756 31-1048, chain 1 of 2): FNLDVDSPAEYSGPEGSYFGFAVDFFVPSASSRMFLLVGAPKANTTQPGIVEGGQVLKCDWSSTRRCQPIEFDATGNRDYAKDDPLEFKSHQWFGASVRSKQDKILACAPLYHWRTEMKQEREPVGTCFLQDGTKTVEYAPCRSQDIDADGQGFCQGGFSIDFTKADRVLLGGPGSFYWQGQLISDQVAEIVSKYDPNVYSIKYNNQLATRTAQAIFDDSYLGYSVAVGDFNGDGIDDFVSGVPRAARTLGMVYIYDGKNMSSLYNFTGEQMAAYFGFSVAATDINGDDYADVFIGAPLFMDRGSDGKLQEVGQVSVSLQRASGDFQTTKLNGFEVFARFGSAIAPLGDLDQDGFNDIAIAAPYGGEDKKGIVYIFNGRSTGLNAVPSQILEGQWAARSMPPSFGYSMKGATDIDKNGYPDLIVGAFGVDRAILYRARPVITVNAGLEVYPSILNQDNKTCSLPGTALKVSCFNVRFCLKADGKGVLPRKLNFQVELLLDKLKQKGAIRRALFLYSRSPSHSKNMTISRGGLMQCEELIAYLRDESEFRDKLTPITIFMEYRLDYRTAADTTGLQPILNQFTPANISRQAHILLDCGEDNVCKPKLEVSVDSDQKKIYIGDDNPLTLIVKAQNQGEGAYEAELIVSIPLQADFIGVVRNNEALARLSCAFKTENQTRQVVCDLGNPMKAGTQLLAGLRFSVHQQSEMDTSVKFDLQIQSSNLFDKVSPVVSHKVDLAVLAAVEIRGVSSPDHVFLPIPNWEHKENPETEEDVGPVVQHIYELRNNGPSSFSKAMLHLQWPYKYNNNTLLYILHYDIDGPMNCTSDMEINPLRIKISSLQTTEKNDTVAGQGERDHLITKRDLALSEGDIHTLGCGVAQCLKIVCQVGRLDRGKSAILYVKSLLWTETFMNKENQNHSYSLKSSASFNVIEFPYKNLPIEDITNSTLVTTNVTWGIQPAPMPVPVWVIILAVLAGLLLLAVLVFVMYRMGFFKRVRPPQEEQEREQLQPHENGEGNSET
T1 sequence (P05106 27-788, chain 2 of 2): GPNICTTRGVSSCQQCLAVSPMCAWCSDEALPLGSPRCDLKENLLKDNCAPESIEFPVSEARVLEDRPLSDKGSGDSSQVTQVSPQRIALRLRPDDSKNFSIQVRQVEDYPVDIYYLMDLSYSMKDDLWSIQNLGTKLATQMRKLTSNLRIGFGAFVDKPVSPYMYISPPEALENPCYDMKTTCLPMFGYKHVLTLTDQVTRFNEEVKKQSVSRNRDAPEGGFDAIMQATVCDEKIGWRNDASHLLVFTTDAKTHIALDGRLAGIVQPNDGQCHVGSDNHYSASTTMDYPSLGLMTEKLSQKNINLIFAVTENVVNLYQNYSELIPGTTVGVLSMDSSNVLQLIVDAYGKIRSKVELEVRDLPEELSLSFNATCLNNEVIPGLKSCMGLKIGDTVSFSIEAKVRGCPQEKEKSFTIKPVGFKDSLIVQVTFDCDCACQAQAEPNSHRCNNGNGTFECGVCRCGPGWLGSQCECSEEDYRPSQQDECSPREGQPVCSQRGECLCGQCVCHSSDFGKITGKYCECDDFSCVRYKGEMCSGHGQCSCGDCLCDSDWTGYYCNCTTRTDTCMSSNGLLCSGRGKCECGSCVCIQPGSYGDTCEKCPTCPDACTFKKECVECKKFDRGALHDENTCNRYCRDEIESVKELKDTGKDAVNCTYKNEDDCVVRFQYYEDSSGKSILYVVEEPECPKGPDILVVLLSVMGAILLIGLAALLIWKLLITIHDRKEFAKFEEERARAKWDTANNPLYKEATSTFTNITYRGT

Binder	IC50
B1	10 µM
G[Pen]FRGDSFCA (disulfide 2-9) [G(Pen)FRGDSFCA]	0.05 µM
G[Pen]GRGDSFCA (disulfide 2-9) [G(Pen)GRGDSFCA]	0.02 µM
R[Pen]GRGDTPCA (disulfide 2-9) [R(Pen)GRGDTPCA]	0.03 µM
FRGDSPDG	0.04 µM
LRGDSPDG	0.2 µM
YRGDSPDG	0.08 µM
R[Pen]GRGDTPCR (disulfide 2-9) [R(Pen)GRGDTPCR]	0.01 µM
[Cyclohexylacetyl(1-SH)]GHRGDLRCA (disulfide 1-9) [(Pmp)GHRGDLRCA]	10 µM
R[Cys(β,β-pentamethylene)]GHRGD[Tyr(Me)]KCR (disulfide 2-10) [R(Pmc)GHRGD(O-Me-Tyr)KCR]	10 µM
G[Cys(β,β-pentamethylene)]GHRGD[Tyr(Me)(3)]RCR (disulfide 2-10) [G(Pmc)GHRGD(O-Me-Tyr)RCR]	10 µM
R[Cys(β,β-pentamethylene)]GHRGD[Phe(4-NO2)]KCR (disulfide 2-10) [R(Pmc)GHRGD(p-nitro-Phe)KCR]	10 µM
R[Cys(β,β-pentamethylene)]GHRGD[Phe(4-I)]KCR (disulfide 2-10) [R(Pmc)GHRGD(p-iodo-Phe)KCR]	8 µM
T[Cys(β,β-pentamethylene)]GHRGD[Tyr(OMe)(3)]RCR (disulfide 2-10; not fully specified; printed as T(Pmc)GHRGD(O-Me-Tyr)RCR) [T(Pmc)GHRGD(O-Me-Tyr)RCR]	10 µM
R[Cys(β,β-pentamethylene)]GHRGD[Tyr(3,5-I2)]RCR (disulfide 2-10) [R(Pmc)GHRGD(3,5-diiodo-Tyr)RCR]	0.9 µM
R[Cys(β,β-pentamethylene)]GHRGDVRCR (disulfide 2-10; not fully specified; printed as R(Pmc)GHRGDVRCR) [R(Pmc)GHRGDVRCR]	2 µM
R[Cys(β,β-pentamethylene)]GHRGD[Tyr(Me)(4)]RCR (disulfide 2-10; also: am-Pmp2 from racemic mixture) [R(am-Pmp)GHRGD(TyrMe)RCR]	1 µM

These binders were tested against T2, Platelet glycoprotein IIb/IIIa (human, UniProt P08514 32-1039; P05106 27-788) (assay: cell-based or functional assay).

Binder	IC50, ADP-Stimulated Aggregation	IC50, Thrombin Stimulated Aggregation
G[Pen]FRGDSFCA (disulfide 2-9) [G(Pen)FRGDSFCA]	< 200 µM	
G[Pen]LRGDSPCA (disulfide 2-9) [G(Pen)LRGDSPCA]	415 µM	308 µM
G[Pen]GRGDSFCA (disulfide 2-9) [G(Pen)GRGDSFCA]	115 µM	
G[Pen]GRGDRPCA (disulfide 2-9) [G(Pen)GRGDRPCA]	22.3 µM	
R[Pen]GRGDTPCA (disulfide 2-9) [R(Pen)GRGDTPCA]	7 µM	
R[Pen]GRGDSRCA (disulfide 2-9) [R(Pen)GRGDSRCA]	12 µM	12 µM
XGHRGDLRXA (not fully specified; t-but-am-Pmp at 1; Pen at 9) [(t-but-am-Pmp)GHRGDLR(Pen)A]	89 µM	
FRGDSPDG	110 µM	
LRGDSPDG	150 µM	
G[Pen]GRGDTPCA (disulfide 2-9) [G(Pen)GRGDTPCA]	22.3 µM	
R[Pen]GRGDWPCR (disulfide 2-9) [R(Pen)GRGDWPCR]		0.53 µM
R[Pen]GRGDTPCR (disulfide 2-9) [R(Pen)GRGDTPCR]		2 µM
G[Pen]LRGDTPCA (disulfide 2-9) [G(Pen)LRGDTPCA]	86 µM	
G[Pen]LRGDSRCA (disulfide 2-9) [G(Pen)LRGDSRCA]	41 µM	49 µM
R[Pen]GRGDLRCA (disulfide 2-9) [R(Pen)GRGDLRCA]	16 µM	13 µM
R[Cys(β,β-pentamethylene)]GHRGDFRCR (disulfide 2-10 (inferred)) [R(Pmc)GHRGDFRCR]	0.62 µM	
R[Cys(β,β-pentamethylene)]GHRGDYRCR (disulfide 2-10) [R(Pmc)GHRGDYRCR]	1 µM	
R[Cys(β,β-pentamethylene)]GHRGDVRCR (disulfide 2-10; not fully specified; printed as R(Pmc)GHRGDVRCR) [R(Pmc)GHRGDVRCR]	0.69 µM	
R[Orn]GHRGDLRDR [R(orn)GHRGDLRDR]	< 200 µM	
R[Cys(β,β-pentamethylene)]RGD[Cha]CR (disulfide 2-7) [R(am-Pmp)RGD(Cha)CR]	< 200 µM	
R[Pen]GHRGDTRCR (disulfide 2-10) [R(Pen)GHRGDTRCR]	8.8 µM	
G[Pen]YRGDSPCA (disulfide 2-9) [G(Pen)YRGDSPCA]	47 µM	
G[Pen]GHRGDTRCA (disulfide 2-10) [G(Pen)GHRGDTRCA]	11.3 µM	17 µM
L[Pen]GHRGDLRCA (disulfide 2-10) [L(Pen)GHRGDLRCA]	10.5 µM	
[t‑butylAmino‑Pmp]GHRGDLRCA (disulfide 1-9; also: place of tert-butyl and chirality not given here) [(t-butylAmino-Pmp) GHRGDLRCA]	130 µM	

What follows are binders tested against T3, Fibronectin receptor (human, UniProt P08648 42-1049; P05556 21-798) (assay: competitive ELISA, fibronectin coated).
T3 construct: mature; Purified on a 110 kd fibronectin fragment column; also called Fn-R; FnR
T3 sequence (P08648 42-1049, chain 1 of 2): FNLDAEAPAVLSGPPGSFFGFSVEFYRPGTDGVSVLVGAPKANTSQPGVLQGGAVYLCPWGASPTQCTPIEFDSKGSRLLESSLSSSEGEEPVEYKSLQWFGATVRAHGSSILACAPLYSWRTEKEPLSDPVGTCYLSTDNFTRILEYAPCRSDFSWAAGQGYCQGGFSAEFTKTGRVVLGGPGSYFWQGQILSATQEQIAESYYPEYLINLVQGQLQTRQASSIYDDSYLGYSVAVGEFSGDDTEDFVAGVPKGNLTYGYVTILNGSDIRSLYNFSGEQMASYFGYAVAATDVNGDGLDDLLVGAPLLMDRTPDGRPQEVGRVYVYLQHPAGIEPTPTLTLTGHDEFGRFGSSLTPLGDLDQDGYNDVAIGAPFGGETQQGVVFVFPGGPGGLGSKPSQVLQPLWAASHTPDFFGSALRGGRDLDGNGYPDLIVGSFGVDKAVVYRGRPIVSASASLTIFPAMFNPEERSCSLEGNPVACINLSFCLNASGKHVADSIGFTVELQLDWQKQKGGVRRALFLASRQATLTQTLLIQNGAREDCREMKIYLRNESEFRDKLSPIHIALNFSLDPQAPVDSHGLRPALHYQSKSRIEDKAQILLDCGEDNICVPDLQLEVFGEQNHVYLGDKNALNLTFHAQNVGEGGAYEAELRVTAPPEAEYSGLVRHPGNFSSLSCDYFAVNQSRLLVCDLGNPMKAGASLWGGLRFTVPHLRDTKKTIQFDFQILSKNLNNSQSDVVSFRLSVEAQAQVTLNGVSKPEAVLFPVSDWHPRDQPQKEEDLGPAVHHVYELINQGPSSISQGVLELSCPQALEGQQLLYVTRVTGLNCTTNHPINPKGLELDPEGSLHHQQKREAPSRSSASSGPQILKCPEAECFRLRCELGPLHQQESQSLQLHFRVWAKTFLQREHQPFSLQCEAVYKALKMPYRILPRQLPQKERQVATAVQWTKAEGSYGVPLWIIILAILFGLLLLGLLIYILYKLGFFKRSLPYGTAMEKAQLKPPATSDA
T3 sequence (P05556 21-798, chain 2 of 2): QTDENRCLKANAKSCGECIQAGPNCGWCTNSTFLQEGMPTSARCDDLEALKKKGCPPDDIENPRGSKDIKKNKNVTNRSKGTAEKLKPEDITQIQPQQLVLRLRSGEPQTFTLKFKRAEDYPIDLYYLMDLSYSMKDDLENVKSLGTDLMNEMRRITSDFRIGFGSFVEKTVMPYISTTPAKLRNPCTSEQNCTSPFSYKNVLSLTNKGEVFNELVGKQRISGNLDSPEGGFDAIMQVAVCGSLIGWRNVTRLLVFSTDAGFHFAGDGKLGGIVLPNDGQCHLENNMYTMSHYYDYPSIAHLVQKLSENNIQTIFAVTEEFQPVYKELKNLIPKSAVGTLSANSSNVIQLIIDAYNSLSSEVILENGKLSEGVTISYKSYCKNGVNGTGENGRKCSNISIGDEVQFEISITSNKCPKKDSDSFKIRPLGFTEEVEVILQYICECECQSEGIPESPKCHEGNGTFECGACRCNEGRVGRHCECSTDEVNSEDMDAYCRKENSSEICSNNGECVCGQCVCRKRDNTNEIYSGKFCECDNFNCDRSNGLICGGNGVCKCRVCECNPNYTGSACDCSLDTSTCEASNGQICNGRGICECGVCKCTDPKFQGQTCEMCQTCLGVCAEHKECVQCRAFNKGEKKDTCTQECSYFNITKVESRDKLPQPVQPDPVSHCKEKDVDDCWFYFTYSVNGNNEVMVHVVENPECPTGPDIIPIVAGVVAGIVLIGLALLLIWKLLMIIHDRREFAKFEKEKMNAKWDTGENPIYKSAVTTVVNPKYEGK

Binder	IC50
B2	0.03 µM
R[Pen]GRGDTPCA (disulfide 2-9) [R(Pen)GRGDTPCA]	0.08 µM
R[Pen]GHRGD[1Nal]RCR (disulfide 2-10) [R(Pen)GHRGD(1-Nal)RCR]	10 µM
FRGDSPDG	2.4 µM
R[Cys(β,β-pentamethylene)]GRGDTPCA (disulfide 2-9) [R(AminoPmp)GRGDTPCA]	0.03 µM
R[Cys(β,β-pentamethylene)]GRGDWPCR (disulfide 2-9) [R(am-Pmp)GRGDWPCR]	0.05 µM
D[Cys(β,β-pentamethylene)]GHRGD[Tyr(OMe)″]RCR (disulfide 2-10) [D(Pmc)GHRGD(O-Me-Tyr)RCR]	10 µM
R[Cys(β,β-pentamethylene)]GHRGD[Tyr(Me)]KCR (disulfide 2-10) [R(Pmc)GHRGD(O-Me-Tyr)KCR]	10 µM
G[Cys(β,β-pentamethylene)]GHRGD[Tyr(Me)(3)]RCR (disulfide 2-10) [G(Pmc)GHRGD(O-Me-Tyr)RCR]	10 µM
T[Cys(β,β-pentamethylene)]GHRGD[Tyr(OMe)(3)]RCR (disulfide 2-10; not fully specified; printed as T(Pmc)GHRGD(O-Me-Tyr)RCR) [T(Pmc)GHRGD(O-Me-Tyr)RCR]	10 µM
R[Cys(β,β-pentamethylene)]GHRGD[Tyr(nHex)]RCR (disulfide 2-10) [R(Pmc)GHRGD(O-n-hexyl-Tyr)RCR]	2 µM
R[dPen]NPRGD[Tyr(OMe)(3)]RCR (disulfide 2-10) [R(dPen)NPRGD(O-Me-Tyr)RCR]	10 µM

The binders below were run against T2, Platelet glycoprotein IIb/IIIa (assay: competition, ELISA or liposome assay).

Binder	IC50
B1	0.4 µM
R[Cys(β,β-pentamethylene)]GHRGDLRCR (disulfide 2-10; not fully specified; printed as R(am-Pmp)GHRGDLRCR-1) [R(am-Pmp)GHRGDLRCR-1]	0.4 µM
R[Cys(β,β-pentamethylene)]GHRGD[O‑Me‑Tyr]RCR (disulfide 2-10, also called R(Pmc)GHRGD(Y-OMe)RCR; 5O) [R(Pmc)GHRGD(O-Me-Tyr)RCR]	0.06 µM
R[Cys(β,β-pentamethylene)]GHRGD[Tyr(Me)][code O]CR (disulfide 2-10; reading uncertain; also: printed as R(Pmc)GHRGD(O-Me-Tyr)OCR) [R(Pmc)GHRGD(O-Me-Tyr)OCR]	0.007 µM
R[Cys(β,β-pentamethylene)]GHRGDWRCR (disulfide 2-10; not fully specified; printed as R(am-Pmp)GHRGDWRCR-1) [R(am-Pmp)GHRGDWRCR-1]	0.06 µM
